Test [1] concerns the target T1, FcgRIIa type R extracellular domain with C-terminal His tag (human, UniProt P12318 34-217).
T1 construct: extracellular domain; also called FcgRIIaR; FcgRIIa R; not shown: His tag at the C terminus
T1 sequence (looked up): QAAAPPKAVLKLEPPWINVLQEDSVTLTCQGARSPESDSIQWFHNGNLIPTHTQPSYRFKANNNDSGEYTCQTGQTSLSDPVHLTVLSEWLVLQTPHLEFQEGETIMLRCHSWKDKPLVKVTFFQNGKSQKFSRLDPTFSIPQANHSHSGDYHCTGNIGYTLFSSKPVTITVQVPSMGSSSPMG
Nature of the test: SPR (Biacore), antibody captured on chip, soluble FcgR as analyte, kinetic 1:1 fit.

The target of test [2] is T1, FcgRIIa type R extracellular domain …. The test is described as above. The protocol: (§1) The variants were assessed for the binding activity to FcgR Ia, FcgR IIaR, FcgR IIaH, and FcgRIIb according to the method described in Reference Example 8.
(§2) Analysis of interaction between obj ective antibody and the FcγR was carried out using Biacore T100 (GE Healthcare), Biacore T200, Biacore A100, and Biacore 4000. HBS-EP+ (GE Healthcare) was used as the running buffer, and the measurement temperature was set to 25° C. Chips produced by immobilizing the antigen peptide by the amine coupling method to a Series S sensor Chip CM5 (GE Healthcare), chips produced by allowing preliminarily biotinylated antigen peptides to interact with and immobilize onto a Series S Sensor Chip SA (certified) (GE Healthcare), chips produced by immobilizing Protein L (ACTIGEN, BioVision) to Series S Sencor Chip CM5 (GE Healthcare), or chips produced by immobilizing Protein A/G (Thermo Scientific) to Series S Sencor Chip CM5 (GE Healthcare) were used. Antibodies of interest were captured onto these chips, and allowed to interact to each FcγR diluted with running buffer. To regenerate and repeatedly use the chip, the antibodies captured onto the chip were washed off by reacting 10 mM glycine-HCl, pH 1.5.
This is another data set of the same source.

Test [3] concerns the target T2, FcgRIIIa type V extracellular domain with C-terminal His tag (human, UniProt P08637 17-208).
T2 construct: extracellular domain; also called FcgRIIIaV; FcgRIIIa V; not shown: His tag at the C terminus
In words: SPR (Biacore), antibody captured on chip, soluble FcgR as analyte; too weak for kinetics, KD from steady-state 1:1 equation. The protocol:
(§3) KD can be calculated by substituting the values of Rmax, RI, and C into this equation. The values of RI and C can be determined from the sensorgram of the measurement results and measurement conditions. Rmax was calculated according to the following method.
(In general: In SPR one partner is held on a chip, and binding of the other changes the refractive index at the surface.)

The target of test [4] is T3, FcgRIIa type H extracellular domain with C-terminal His tag (human, UniProt P12318 34-217).
T3 construct: extracellular domain; also called FcgRIIaH; FcgRIIa H; not shown: His tag at the C terminus
T3 sequence (looked up): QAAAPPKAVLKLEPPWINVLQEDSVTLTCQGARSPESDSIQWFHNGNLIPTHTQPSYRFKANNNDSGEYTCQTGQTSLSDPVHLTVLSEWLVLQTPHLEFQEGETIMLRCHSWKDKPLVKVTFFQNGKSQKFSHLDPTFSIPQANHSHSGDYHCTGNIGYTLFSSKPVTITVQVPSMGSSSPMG
The test is described as above. The procedure:
as §3

The target of test [5] is T2, FcgRIIIa type V extracellular domain …. Described as above. The procedure:
as §3
The source holds these as a separate data set.

For test [6], the target named is T3, FcgRIIa type H extracellular domain …. The description is as above. The protocol: as §3
This is another data set of the same source.

The target in test [7] is T4, FcgRIa extracellular domain with C-terminal His tag (human, UniProt P12314 16-292).
T4 construct: extracellular domain; Expressed in FreeStyle293 cells; also called FcγRIa; not shown: His tag at the C terminus
T4 sequence (P12314 16-292): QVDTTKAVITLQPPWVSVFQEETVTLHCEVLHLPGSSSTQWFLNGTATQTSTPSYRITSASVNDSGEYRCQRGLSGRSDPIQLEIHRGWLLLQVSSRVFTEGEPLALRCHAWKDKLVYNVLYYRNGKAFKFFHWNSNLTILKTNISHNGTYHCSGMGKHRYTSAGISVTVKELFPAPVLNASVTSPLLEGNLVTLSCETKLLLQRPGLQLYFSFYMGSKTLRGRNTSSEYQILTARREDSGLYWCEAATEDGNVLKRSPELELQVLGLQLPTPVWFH
In words: SPR (Biacore), antibody captured on chip, soluble FcgR as analyte, kinetic 1:1 fit.

The target in test [8] is T3, FcgRIIa type H extracellular domain …. The description is as above.
Test [9] addresses T5, FcgRIIb extracellular domain with C-terminal His tag (human, UniProt P31994 43-217).
T5 construct: extracellular domain; Expressed in FreeStyle293 cells; also called FcγRIIb; 2b; not shown: His tag at the C terminus
T5 sequence (looked up): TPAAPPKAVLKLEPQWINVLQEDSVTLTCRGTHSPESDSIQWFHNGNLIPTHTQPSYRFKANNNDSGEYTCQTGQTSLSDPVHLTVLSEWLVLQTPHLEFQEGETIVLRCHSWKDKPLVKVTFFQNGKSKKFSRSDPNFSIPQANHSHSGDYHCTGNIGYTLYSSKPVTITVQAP
The test is described as above.

Test [10] deals with T4, FcgRIa extracellular domain with …. Described as above. The protocol: as §1, §2
This is another data set of the same source.

The target of test [11] is T3, FcgRIIa type H extracellular domain …. Described as above. The protocol: as §1, §2
This is another data set of the same source.

Test [12] deals with T5, FcgRIIb extracellular domain with …. The test is described as above. The protocol:
as §1, §2
This is another data set of the same source.

Test [13] deals with T2, FcgRIIIa type V extracellular domain …. Described as above.
The target in test [14] is T1, FcgRIIa type R extracellular domain …. In words: SPR (Biacore); KD of IL6R-B3/IL6R-L for this FcgR divided by KD of the sample. The procedure:
as §2

Test [15] concerns the target T3, FcgRIIa type H extracellular domain …. The description is as above. The procedure: as §2
Test [16] concerns the target T5, FcgRIIb extracellular domain with …. The test is described as above. The procedure:
as §2

Test [17] has the same target. In words: SPR (Biacore); KD of the sample for FcgRIIaR divided by its KD for FcgRIIb (selectivity for FcgRIIb). The procedure:
as §2

For test [18], the target named is T1, FcgRIIa type R extracellular domain …. In words: SPR (Biacore); KD of IL6R-B3/IL6R-L for this FcgR divided by KD of the sample. The procedure: as §2
This is another data set of the same source.

In test [19] the target is T3, FcgRIIa type H extracellular domain …. Described as above. The procedure: as §2
The source holds these as a separate data set.

Test [20] concerns the target T5, FcgRIIb extracellular domain with …. The description is as above. The protocol: as §2
The source holds these as a separate data set.

Results on 2 molecules are retold here after patent US20180155451A1 (published 2018).

Like-named read-outs stand apart in the source and are kept apart here.

T2 sequence (P08637 17-208 F176V): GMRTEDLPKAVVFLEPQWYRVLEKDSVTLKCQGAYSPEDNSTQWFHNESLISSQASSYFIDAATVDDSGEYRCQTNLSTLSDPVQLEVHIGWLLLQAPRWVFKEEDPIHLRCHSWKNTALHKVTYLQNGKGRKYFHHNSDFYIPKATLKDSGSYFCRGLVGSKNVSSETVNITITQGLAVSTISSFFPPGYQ

B1: IL6R-BP208/IL6R-L (antibody, human IgG1, kappa)
heavy: QVQLQESGPGLVKPSETLSLTCAVSGHSISHDHAWSWVRQPPGEGLEWIGFISYSGITNYNPSLQGRVTISRDNSKNTLYLQMNSLRAEDTAVYYCARSLARTTAMDYWGEGTLVTVSSASTKGPSVFPLAPSSKSTSGGTAALGCLVKDYFPEPVTVSWNSGALTSGVHTFPAVLQSSGLYSLSSVVTVPSSSLGTQTYICNVNHKPSNTKVDKKVEPKSCDKTHTCPPCPAPDLLGDDSVFLFPPKPKDTLMISRTPEVTCVVVDVSDEDGEVKFNWYVDGVEVHNAKTKPREEQYNSTYRVVSVLTVLHQDWLNGKEYKCKVSNKALPRPIEKTISKAKGQPREPQVYTLPPSRDELTKNQVSLTCLVKGFYPSDIAVEWESNGQPENNYKTTPPVLDSDGSFFLYSKLTVDKSRWQQGNVFSCSVMHEALHNHYTQESLSLSP
light: not shown
notes: Homodimer; IL6R-BP208 is IL6R-B3 with E233D, G237D, P238D, H268D, P271G and A330R
A word on the Kd: it is a measure of binding affinity in units of concentration. Low readings indicate higher affinity, high ones lower affinity. Consider B1, for which the dissociation constant (Kd) is 850 nM in [1]; 850 nM in [2]; 53000 nM in test [3]; 8300 nM in [4]; 53000 nM in test [5]; 8300 nM in test [6].

B2: IL6R-BP253/IL6R-L (antibody, human IgG1, kappa)
heavy: QVQLQESGPGLVKPSETLSLTCAVSGHSISHDHAWSWVRQPPGEGLEWIGFISYSGITNYNPSLQGRVTISRDNSKNTLYLQMNSLRAEDTAVYYCARSLARTTAMDYWGEGTLVTVSSASTKGPSVFPLAPSSKSTSGGTAALGCLVKDYFPEPVTVSWNSGALTSGVHTFPAVLQSSGLYSLSSVVTVPSSSLGTQTYICNVNHKPSNTKVDKKVEPKSCDKTHTCPPCPAPELLGGPSVFLFPPKPKDTLMISRTPEVTCVVVDVEHEDPEVKFNWYVDGVEVHNAKTKPREEQYNSTYRVVSVLTVLHQDWLNGKEYKCKVSNKAFPAPIEKTISKAKGQPREPQVYTLPPSRDELTKNQVSLTCLVKGFYPSDIAVEWESNGQPENNYKTTPPVLDSDGSFFLYSKLTVDKSRWQQGNVFSCSVMHEALHNHYTQESLSLSP
light: not shown
notes: Homodimer; IL6R-BP253 is IL6R-B3 with S267E and L328F
For the molecule B2, the Kd in test [1] came to 2.3 nM; in [7], 0.05 nM; in [8], 860 nM; in test [9], 8.9 nM; in test [2], 2.3 nM; in test [10] it was 0.05 nM. The Kd turned out to be 860 nM in test [11], 8.9 nM in test [12], 400 nM in test [13] and 7100 nM in test [5]. In addition, the “Relative KD” value was determined as 480 ratio in [14]; 0.9 ratio in [15]; 349 ratio in [16]; 480 ratio in [18]; 0.9 ratio in test [19]; 349 ratio in test [20]. In addition, the “KD(IIaR)/KD(IIb)” value in test [17] is 0.3 ratio.
